One test addresses T1, Flag tag-Bcl-xL (UniProt Q07817 1-233).
T1 construct: Expressed in transfected COS cells; also called Flag-Bcl-xL
The test is described as follows: co-immunoprecipitation from transfected COS cells (summarised in FIG. 6).

Test [1] has as its target GST-PEM bacterially-expressed fusion protein (Bak residues 58-103 fused to GST) (UniProt P08515 1-218 = GST; Q16611 58-103). Kind of test: GST pull-down of in vitro translated 35S labeled protein.
For test [2], the target named is GST alone (purified, bacterially expressed) (UniProt P08515 1-218 = GST). Kind of test: GST pull-down on glutathione-agarose, autoradiography.
Chain of GST alone (purified, bacterially expressed) (P08515 whole entry): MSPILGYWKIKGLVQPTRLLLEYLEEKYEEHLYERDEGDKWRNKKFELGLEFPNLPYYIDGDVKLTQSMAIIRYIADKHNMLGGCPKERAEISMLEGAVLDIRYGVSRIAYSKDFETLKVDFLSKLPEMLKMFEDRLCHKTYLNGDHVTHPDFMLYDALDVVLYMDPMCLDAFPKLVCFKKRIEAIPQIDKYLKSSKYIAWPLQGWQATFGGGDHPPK

T1 sequence (Q07817 whole entry): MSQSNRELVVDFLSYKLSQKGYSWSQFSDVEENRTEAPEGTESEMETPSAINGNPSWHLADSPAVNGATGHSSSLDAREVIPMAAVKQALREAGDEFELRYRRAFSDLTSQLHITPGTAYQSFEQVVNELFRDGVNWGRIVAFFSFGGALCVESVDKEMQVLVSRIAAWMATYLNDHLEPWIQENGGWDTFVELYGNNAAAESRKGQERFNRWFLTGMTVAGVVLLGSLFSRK
Chain of GST-PEM bacterially-expressed fusion protein (Bak residues 58-103 fused to GST) (P08515 1-218, tags or fused parts left off): as the sequence (P08515 whole entry) above

B1: Bip1a ΔGD mutant (other, UniProt Q13323 1-160, looked up)
chain: MSEVRPLSRDILMETLLYEQLLEPPTMEVLGMTDSEEDLDPMEDFDSLECMEGSDALRAPRLAQLSEVAMHSLGLAFIYDQTEDIRDVLRSFMDGFTTLKENIMRFWRSPNPGSWVSCEQVLLALLLLLALLLPLLSGGLHLLLK
Take B1: the binding result with Flag tag-Bcl-xL was “no binding”.

B2: Bip1a (other, UniProt Q13323 1-160, looked up)
chain: MSEVRPLSRDILMETLLYEQLLEPPTMEVLGMTDSEEDLDPMEDFDSLECMEGSDALALRLACIGDEMDVSLRAPRLAQLSEVAMHSLGLAFIYDQTEDIRDVLRSFMDGFTTLKENIMRFWRSPNPGSWVSCEQVLLALLLLLALLLPLLSGGLHLLLK
notes: Used in vitro translated and 35S labeled, and expressed in transfected COS cells; also called in vitro translated, 35S labeled Bip1a
Regarding B2, the binding result in test [1] is “no binding”.

B3: Bax ΔGD mutant (other, UniProt Q07812 1-192, looked up)
chain: MDGSGEQPRGGGPTSSEQIMKTGALLLQGFIQDRAGRMGGEAPELALDPVPQDASTKKMELQRMIAAVDTDSPREVFFRVAADMFSDGNFNWGRVVALFYFASKLVLKALCTKVPELIRTIMGWTLDFLRERLLGWIQDQGGWDGLLSYFGTPTWQTVTIFVAGVLTASLTIWKKMG
As for B3, the binding result with Flag tag-Bcl-xL is reported as “no binding”.

B4: Bak, in vitro translated, 35S-methionine labeled (other, UniProt Q16611 1-211, looked up)
chain: MASGQGPGPPRQECGEPALPSASEEQVAQDTEEVFRSYVFYRHQQEQEAEGVAAPADPEMVTLPLQPSSTMGQVGRQLAIIGDDINRRYDSEFQTMLQHLQPTAENAYEYFTKIATSLFESGINWGRVVALLGFGYRLALHVYQHGLTGFLGQVTRFVVDFMLHHCIARWIAQRGGWVAALNLGNGPILNVLVVLGVVLLGQFVVRRFFKS
modifications: 35S-methionine label
notes: also called 35S labeled in vitro translated Bak; 35Met-labeled Bak
For B4, the binding result in test [2] is “no binding”.
